Measurements taken from the Immune Epitope Database (IEDB).

Experiments:
HLA-B*07:02 = test: IEDB peptide-MHC binding, purified MHC/direct/fluorescence; filed as Kd, often an IC50 or EC50 that approximates it; ≥ and ≤ were set here for values at or beyond the usual limits of such assays
HLA-A*01:01 [1] = test: as above
HLA-A*02:01 [2] = test: IEDB peptide-MHC binding, purified MHC/competitive/fluorescence; ≥ and ≤ were set here for values at or beyond the usual limits of such assays
HLA-A*24:02 = test: IEDB peptide-MHC binding, purified MHC/competitive/radioactivity; filed as Kd, often an IC50 or EC50 that approximates it; ≥ and ≤ were set here for values at or beyond the usual limits of such assays
HLA-A*01:01 [3] = test: as above
HLA-A*26:01 = test: as above
HLA-A*30:02 = test: as above
HLA-B*51:01 = test: as above
HLA-B*58:01 = test: IEDB peptide-MHC binding, purified MHC/direct/fluorescence; filed as Kd, often an IC50 or EC50 that approximates it; ≥ and ≤ were set here for values at or beyond the usual limits of such assays
HLA-B*27:05 = test: as above
HLA-A*11:01 = test: as above; settings: source organism: SARS-CoV1
HLA-B*15:01 [4] = test: IEDB peptide-MHC binding, purified MHC/competitive/radioactivity; filed as Kd, often an IC50 or EC50 that approximates it; ≥ and ≤ were set here for values at or beyond the usual limits of such assays
HLA-B*46:01 = test: IEDB peptide-MHC binding, purified MHC/direct/fluorescence; filed as Kd, often an IC50 or EC50 that approximates it; ≥ and ≤ were set here for values at or beyond the usual limits of such assays; settings: source organism: Yellow fever virus
HLA-B*53:01 = test: IEDB peptide-MHC binding, purified MHC/competitive/radioactivity; filed as Kd, often an IC50 or EC50 that approximates it; ≥ and ≤ were set here for values at or beyond the usual limits of such assays
HLA-A*69:01 = test: IEDB peptide-MHC binding, purified MHC/direct/fluorescence; filed as Kd, often an IC50 or EC50 that approximates it; ≥ and ≤ were set here for values at or beyond the usual limits of such assays
HLA-A*02:01 [5] = test: as above
HLA-B*15:01 [6] = test: as above
HLA-A*02:02 = test: IEDB peptide-MHC binding, purified MHC/competitive/radioactivity; filed as Kd, often an IC50 or EC50 that approximates it; ≥ and ≤ were set here for values at or beyond the usual limits of such assays
HLA-A*02:03 = test: as above
HLA-A*02:06 = test: as above
[7] = source organism: Sudan ebolavirus
[8] = source organism: Dengue virus 1 Brazil/97-11/1997
[9] = source organism: Mammarenavirus brazilense
[10] = source organism: Dengue virus 2 Jamaica/1409/1983
[11] = source organism: Dengue virus 3 Martinique/1243/1999
[12] = source organism: Vaccinia virus WR
[13] = source organism: Zaire ebolavirus
[14] = source organism: Dengue virus 4 Dominica/814669/1981
[15] = source organism: Mycobacterium tuberculosis
[16] = source organism: Human betaherpesvirus 6B
[17] = source organism: Bacillus anthracis
[18] = source organism: Haemophilus influenzae
[19] = source organism: Dengue virus 4 Philippines/H241/1956
[20] = source organism: Entamoeba histolytica
[21] = source organism: Salmonella enterica subsp. enterica serovar Typhimurium
[22] = source organism: SARS coronavirus Tor2

## APRTLVLLL
HLA-B*07:02; source organism: Homo sapiens
  Kd: 145 nM

## ASLLRRWPK
HLA-A*01:01 [1]; source organism: Vibrio cholerae
  Kd: ≥ 20000 nM

## ASTVIYRGV
HLA-A*02:01 [2]; [7]
  IC50: 7440 nM

## DFPGKTVWF
HLA-A*24:02; [8]
  Kd: 8800 nM

## DPKRYFVPIF
HLA-A*01:01 [3]; [9]
  Kd: ≥ 70400 nM
HLA-A*26:01; [9]
  Kd: ≥ 69700 nM

## EKSAAIDGEY
HLA-A*30:02; [8]
  Kd: 49.3 nM
HLA-A*01:01 [3]; [8]
  Kd: 2420 nM
HLA-A*26:01; [8]
  Kd: 2040 nM

## ELCEDTITY
HLA-A*26:01; [10]
  Kd: 754 nM

## EPPFGESNI
HLA-B*51:01; [11]
  Kd: 11200 nM

## ERSDKSYEH
HLA-B*58:01; source organism: SARS-CoV1
  Kd: 1840 nM
HLA-B*27:05; source organism: SARS-CoV1
  Kd: 8450 nM
HLA-A*11:01
  Kd: 16800 nM

## ETLLLLGLMI
HLA-A*26:01; [11]
  Kd: ≥ 54400 nM

## FDFCEGTTVV
HLA-B*51:01; [10]
  Kd: 2650 nM

## FILTAILFF
HLA-B*15:01 [4]; [12]
  Kd: 181 nM

## FMAILQHHQ
HLA-A*02:01 [2]; [13]
  IC50: 1080 nM

## FTPEARNSTF
HLA-A*24:02; [14]
  Kd: 4150 nM
HLA-A*26:01; [14]
  Kd: 518 nM

## GGFSTLDKI
HLA-A*02:01 [2]; source organism: Variola virus
  IC50: ≥ 124000 nM

## GMMGGLWKY
HLA-B*46:01
  Kd: ≥ 20000 nM

## GPRTRGYAI
HLA-B*07:02; [15]
  Kd: 9 nM

## GRSCTEETF
HLA-B*27:05; source organism: Mammarenavirus juninense
  Kd: ≥ 20000 nM

## GTGPCAGDF
HLA-A*02:01 [2]; [13]
  IC50: ≥ 512000 nM

## IANELNYILW
HLA-B*53:01; [11]
  Kd: 79.9 nM

## ICDDVLSKY
HLA-A*01:01 [1]; [16]
  Kd: 3180 nM
HLA-A*69:01; [16]
  Kd: 2690 nM

## ILNGGLGNA
HLA-A*02:01 [5]; [17]
  Kd: 317 nM
HLA-A*69:01; [17]
  Kd: ≥ 20000 nM

## ILYDTGSSW
HLA-B*15:01 [6]; [18]
  Kd: 119 nM
HLA-A*02:01 [5]; [18]
  Kd: 10200 nM
HLA-B*58:01; [18]
  Kd: 92.8 nM

## IMILKLLTDF
HLA-B*15:01 [4]; source organism: Dengue virus 1 Singapore/S275/1990
  Kd: 12.4 nM

## IPHDLMEFI
HLA-B*51:01; [19]
  Kd: 20.4 nM
HLA-B*53:01; [19]
  Kd: 6.39 nM

## ISTIGIRPS
HLA-A*02:01 [2]; [7]
  IC50: ≥ 116000 nM

## IVFATAARY
HLA-B*15:01 [6]; [15]
  Kd: 161 nM

## IWLKLRDSY
HLA-A*30:02; [8]
  Kd: 673 nM

## KIMASENSS
HLA-A*02:01 [2]; [13]
  IC50: ≥ 119000 nM

## KQLESVMYL
HLA-A*02:01 [5]; [20]
  Kd: 4.8 nM
HLA-A*69:01; [20]
  Kd: ≥ 20000 nM

## KQPATLRKY
HLA-A*30:02; [10]
  Kd: 416 nM

## KQTGSASSM
HLA-B*15:01 [4]; [10]
  Kd: 10.8 nM

## KSKKYEGPF
HLA-B*15:01 [4]; [12]
  Kd: 1.86 nM

## KTSQVPKLL
HLA-A*02:01 [2]; source organism: Variola virus
  IC50: 23500 nM

## KVVQPENLEY
HLA-B*15:01 [4]; source organism: Dengue virus 2 16681-PDK53
  Kd: 30 nM

## LAESVKMHM
HLA-B*15:01 [4]; [12]
  Kd: 963 nM

## LAKKTLAPF
HLA-B*15:01 [4]; [12]
  Kd: 2.13 nM

## LAMGCYSQV
HLA-B*51:01; [19]
  Kd: 140 nM

## LANTNFFVF
HLA-B*15:01 [4]; [12]
  Kd: 17 nM

## LHPASAWTLY
HLA-A*30:02; [8]
  Kd: 53.7 nM

## LLSSTRVPNY
HLA-A*30:02; [19]
  Kd: 2170 nM
HLA-A*01:01 [3]; [19]
  Kd: 2260 nM

## LPETLETLL
HLA-B*53:01; [10]
  Kd: 918 nM

## LPVWLAHKV
HLA-B*51:01; [11]
  Kd: 126 nM
HLA-B*53:01; [11]
  Kd: 831 nM

## LQKGGVIVY
HLA-B*15:01 [6]; [18]
  Kd: 478 nM

## LSIPHDLMEF
HLA-B*15:01 [4]; [19]
  Kd: 5.99 nM
HLA-A*01:01 [3]; [19]
  Kd: ≥ 36200 nM

## LTPKAQREI
HLA-A*02:01 [2]; source organism: Variola virus
  IC50: ≥ 71400 nM

## LVCKDHLAS
HLA-A*02:01 [2]; [7]
  IC50: ≥ 185000 nM

## MISRMLINRF
HLA-A*26:01; [10]
  Kd: 8330 nM

## MLIEVILTA
HLA-B*15:01 [4]; [12]
  Kd: 207 nM

## MLSEGRMNS
HLA-A*02:01 [2]; source organism: Vaccinia virus
  IC50: 6520 nM

## MMIDDFGTA
HLA-B*15:01 [4]; [12]
  Kd: 7.6 nM

## MMLAQAYYG
HLA-B*15:01 [6]; [21]
  Kd: 5780 nM
HLA-A*02:01 [5]; [21]
  Kd: 273 nM
HLA-A*69:01; [21]
  Kd: 3190 nM

## MPLVMAWRT
HLA-B*51:01; [19]
  Kd: 693 nM
HLA-B*53:01; [19]
  Kd: 88.4 nM

## MSFRDLGRVM
HLA-B*51:01; [10]
  Kd: ≥ 38300 nM

## NAVTTNNLL
HLA-A*02:02; [12]
  Kd: 1850 nM
HLA-A*02:03; [12]
  Kd: ≥ 24900 nM
HLA-A*02:06; [12]
  Kd: 202 nM

## NGLITSTVT
HLA-A*02:01 [2]; [7]
  IC50: ≥ 118000 nM

## NIEIMDKEQL
HLA-A*02:02; [12]
  Kd: 3470 nM
HLA-A*02:03; [12]
  Kd: 15500 nM
HLA-A*02:06; [12]
  Kd: 5650 nM

## NLWNTFTRL
HLA-A*02:02; [22]
  Kd: 24 nM
HLA-A*02:03; [22]
  Kd: 194 nM
HLA-A*02:06; [22]
  Kd: 166 nM

## NLYISDYKM
HLA-A*02:02; [12]
  Kd: 2790 nM
HLA-A*02:03; [12]
  Kd: ≥ 25300 nM
HLA-A*02:06; [12]
  Kd: 11000 nM

## NVLAWLYAA
HLA-A*02:02; [22]
  Kd: 7.31 nM
HLA-A*02:03; [22]
  Kd: 15.3 nM
HLA-A*02:06; [22]
  Kd: 1.58 nM

## PLTYLEYPI
HLA-A*02:01 [5]; source organism: Homo sapiens
  Kd: 2860 nM

## PPTAGVLARW
HLA-B*53:01; [11]
  Kd: 4930 nM

## PTLFGRGVI
HLA-A*02:02; [12]
  Kd: ≥ 30300 nM
HLA-A*02:03; [12]
  Kd: 6730 nM
HLA-A*02:06; [12]
  Kd: ≥ 64800 nM

## QGDNDNWWT
HLA-A*02:01 [2]; [13]
  IC50: ≥ 283000 nM

## QLSGLGINAV
HLA-A*02:01 [2]; source organism: Hepatitis C virus subtype 1b
  IC50: 123 nM
